T1: monomeric hIL-4R (R&D Systems) (human, UniProt P24394 26-231)
T1 construct: Bought (R&D Systems); also called hIL-4R monomer
T1 sequence: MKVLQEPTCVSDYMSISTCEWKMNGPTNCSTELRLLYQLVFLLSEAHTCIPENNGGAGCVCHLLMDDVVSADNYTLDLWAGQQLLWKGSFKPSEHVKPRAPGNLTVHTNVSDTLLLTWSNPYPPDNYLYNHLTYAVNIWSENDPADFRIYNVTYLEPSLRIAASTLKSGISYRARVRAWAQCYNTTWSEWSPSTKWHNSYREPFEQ

T2: hIL-4R on cells (STAT6-transfected HEK293, TF1, TF1/A12) (human, UniProt P24394 26-825)
T2 sequence (looked up): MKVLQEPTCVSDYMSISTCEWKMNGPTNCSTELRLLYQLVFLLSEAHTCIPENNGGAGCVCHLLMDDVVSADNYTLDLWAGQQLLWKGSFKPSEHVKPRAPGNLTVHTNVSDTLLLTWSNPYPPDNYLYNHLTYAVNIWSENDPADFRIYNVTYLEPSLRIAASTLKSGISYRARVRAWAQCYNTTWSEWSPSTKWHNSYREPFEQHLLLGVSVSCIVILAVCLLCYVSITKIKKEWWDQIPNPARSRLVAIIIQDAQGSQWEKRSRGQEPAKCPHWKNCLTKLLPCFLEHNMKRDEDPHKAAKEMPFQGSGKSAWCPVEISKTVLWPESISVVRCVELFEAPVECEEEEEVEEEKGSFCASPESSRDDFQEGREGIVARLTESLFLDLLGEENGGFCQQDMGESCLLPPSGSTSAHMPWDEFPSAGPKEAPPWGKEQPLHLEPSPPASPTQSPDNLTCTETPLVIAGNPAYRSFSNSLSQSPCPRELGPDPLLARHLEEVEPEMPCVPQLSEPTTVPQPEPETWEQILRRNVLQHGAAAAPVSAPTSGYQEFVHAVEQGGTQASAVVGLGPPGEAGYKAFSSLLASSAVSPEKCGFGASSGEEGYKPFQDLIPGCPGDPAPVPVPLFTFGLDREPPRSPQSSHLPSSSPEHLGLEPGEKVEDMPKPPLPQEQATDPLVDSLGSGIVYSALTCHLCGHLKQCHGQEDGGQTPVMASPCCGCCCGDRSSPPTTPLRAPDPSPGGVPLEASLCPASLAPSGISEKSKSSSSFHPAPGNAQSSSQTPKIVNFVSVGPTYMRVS

T3: dimeric hIL-4R-hFc (human, UniProt P24394 26-232)
T3 construct: also called hIL-4R-Fc; not shown: human Fc (hFc)
T3 sequence: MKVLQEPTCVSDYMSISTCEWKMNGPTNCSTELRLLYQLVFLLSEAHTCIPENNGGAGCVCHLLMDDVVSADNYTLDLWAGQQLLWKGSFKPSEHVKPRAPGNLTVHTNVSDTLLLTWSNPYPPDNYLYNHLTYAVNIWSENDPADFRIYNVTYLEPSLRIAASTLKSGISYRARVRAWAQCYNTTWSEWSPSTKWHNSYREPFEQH

T4: mouse IL-4R (mouse, UniProt P16382 26-233, limits assumed)
T4 sequence (looked up): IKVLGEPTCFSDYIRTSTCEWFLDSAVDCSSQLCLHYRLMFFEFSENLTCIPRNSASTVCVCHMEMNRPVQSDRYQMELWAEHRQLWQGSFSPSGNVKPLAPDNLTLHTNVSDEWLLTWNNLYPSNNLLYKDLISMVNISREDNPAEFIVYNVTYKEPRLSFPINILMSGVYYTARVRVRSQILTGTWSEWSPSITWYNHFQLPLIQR

B1: VAB 15C8-17 (antibody, V domains shown)
VH: QVQLVESGGGLVQPGGSLRLSCAVSGFTISDHYMSWIRQAPGKGLEWISYISSSGSKIYYADSVKGRFTISRDNAKNSLFLQMNSLRAEDTAVYYCARTRQLVGDYWGQGTLVTVSS
VL: DIQLTQSPSFLSASVGDRVTITCWASQGISSYLAWYQQKPGKAPKLLIFAASTLQSGVPSRFSGSGSGTEFTLTISSLQPEDFATYYCQQLNSYPLTFGGGTKVEIR
notes: Apparently tested with mouse constant region (anti-mouse IgG capture/detection)
B2: VAB 10G8-19 (antibody, V domains shown)
VH: QVQLVQSGAEVKKPGASVKVSCKASRYTFTSYDINWVRQATGQGLEWMGWMNPNSGNTGYAQKFQGRVTMTRNTSTSTAYMELSSLRSEDTAVYYCARVRRFFDYWGQGTLVTVSS
VL: DIQLTQSPSFLSASVGDRVTITCWASQGIISYLAWYQQKPGKAPKLLIYAASTLHSGVPSRFSGSGSGTEFTLTISSLQPEDFATYYCHQLKSYPITFGQGTRLEIK
notes: as for B1
B3: VX 3F7-6 (antibody, V domains shown)
VH: EVQLVESGGGLVQPGGSLRLSCAASGFTFSSFWMTWVRQAPGKGLEWVANIKQDGSEKYYVDSVKGRFTISRDNAKNSLYLQMNSLRAEDTAVYYCARDPGRTMVRGGIRYYYGMDVWGQGTTVTVSS
VL: DIQMTQSPSSVSASVGDRVTISCRASQGVSSWLAWYQQKPGNAPKLLISAASSIQSGVPSRFSGSGSGTDFTLTISSLQPEDFATYYCQQANSFPLTFGGGTKVEIK
notes: 395/397; 399/401 without saying which was assayed; Apparently tested with mouse constant region (anti-mouse IgG capture/detection)
B4: VAB 16F3-1 (antibody, V domains shown)
VH: QVQLVQSGAEVKKPGASVKVSCKASGYTFNSYGISWVRQAPGQGLEWMGWIRTYNGNTNYAQKLQGRVTMTTDTSTSTAYMELRSLRSDDTAVYYCARDEARIVVAGTTPYYYGMDVWGQGTTVTVSS
VL: DIQMTQSPSSVSASVGDRVTITCRASQDISIWLAWYQQSPGKAPKLLINVASRLQSGVPSRFSGSGSGTDFTLTINSLQPEDFVTYYCQQANSFPITFGQGTRLATK
notes: as for B1
B5: VAB 10C1-5 (antibody, V domains shown)
VH: QVQLVETGGDLVRPGGSLRLSCTASGFTLSDYYMSWIRQAPGKGLEWVSYIRRSGNTIYYADSVKGRFTISRDNAKNSLYLQMNSLRAEDTAVYYCARGGDWADVWGQGTTVTVSS
VL: DIQMTQSPSSLSASVGDRVTITCRASQGISIYLAWFQQKPGKAPKSLIYAASSLQRGVPSKFSGSGSGTDFTLTISSLQPEDFATYYCQQYNSYPYTFGQGTKLEIK
notes: as for B1

Assays:
[1] = target: T1, monomeric hIL-4R (R&D Systems); assay: SPR (BIAcore 2000); antibody captured, monomeric hIL-4R injected
Procedure: (§1) Binding affinity (KD) of selected antibodies with respect to hIL-4R was determined using a real-time biosensor surface plasmon resonance assay (BIAcore™ 2000). Briefly, antibody was captured on a goat anti-mouse (GAM) IgG polyclonal antibody surface created through direct chemical coupling of the GAM IgG to a BIAcore™ chip to form a captured antibody surface. […] Binding of antigen to antibody and dissociation of the bound complex, were monitored in real time. Equilibrium dissociation constants (KD) and dissociation rate constants were ascertained by performing kinetic analysis using BIA evaluation software. BIA evaluation software was also used to calculate the half-life of antigen/antibody complex dissociation (T_{1/2}). […] The binding affinity of anti-hIL-4R antibodies to either mouse or monkey (Macaca fascicularis) IL-4R was also tested.

[2] = target: T2, hIL-4R on cells (STAT6-transfected …); assay: cell-based or functional assay
dimeric hIL-4R-hFc [3] = target: T3, dimeric hIL-4R-hFc; assay: ELISA; antibody titrated against 25 pM hIL-4R-Fc, free receptor caught on hIL-4 plate
Procedure: Concentration of free hIL-4R-Fc (no antibody bound) was determined using a hIL-4R-specific sandwich ELISA. […] After a one-hour incubation at room temperature, the detection plate was washed and plate-bound hIL-4R-hFc was detected using HRP conjugated goat anti-hFc polyclonal antibodies and developed using colorimetric substrates such as BD OptEIA™ (BD Biosciences Pharmingen, San Diego, Calif.). After the reaction was stopped with 1 M phosphoric or sulfuric acid, absorbances at 450 nm were recorded and the data were analyzed using GraphPad™ Prism software.

dimeric hIL-4R-hFc [4] = target: T3, dimeric hIL-4R-hFc; assay: SPR; reduction of hIL-4 (50 nM) binding to captured hIL-4R-hFc after antibody; competitor hIL-4
From the text: Purified hIL-4R-hFc molecules were captured by goat anti-human IgG polyclonal antibody immobilized on CM-5 to a density of 260 RU, to prepare a receptor-coated surface.

[5] = target: T2, hIL-4R on cells (STAT6-transfected …); assay: cell-based or functional assay; remark: listed apart in the source
mouse IL-4R = target: T4, mouse IL-4R; assay: binding affinity test of Example 2 (method not restated)
dimeric hIL-4R-hFc [6] = target: T3, dimeric hIL-4R-hFc; assay: SPR (BIAcore 2000); antibody captured, dimeric hIL-4R-hFc injected
Procedure: as §1

Binder	Kd [1] [pM]	T1/2 monomeric [1] [h]	STAT6 Bioassay IC50 (HEK293 STAT6 luciferase, 10 pM hIL-4) [2]	TF1/A12 Bioassay IC50 (proliferation, 20 pM hIL-4) [2]	TF1 Bioassay IC50 (proliferation, 50 pM hIL-4) [2]	IC50 (dimeric hIL-4R-hFc [3]) [pM]	% Inhibition (BIAcore) (dimeric hIL-4R-hFc [4]) [%]	STAT6 Bioassay IC50 (HEK293 STAT6 luciferase, 40 pM hIL-13) [5]	TF1 Bioassay IC50 (proliferation, 150 pM hIL-13) [5]	binding result (mouse IL-4R)	Kd (dimeric hIL-4R-hFc [6]) [pM]	T1/2 dimeric (dimeric hIL-4R-hFc [6]) [h]
B1	820	0.25	0.32 nM	4.7 nM	0.44 nM	29	97	0.2 nM	2.6 nM	no binding	45	3.6
B2	11400	0.0333	1.8 nM	12.8 nM		18	85	0.97 nM		no binding	52	2
B3	3910	0.267	> 10 nM	> 50 nM		274	86	> 10 nM		no binding	654	2.7
B4	20	4.23	32 pM	67 pM	46 pM	19	97	18 pM	79 pM	no binding	3	41
B5	4470	0.1	1.9 nM	22.8 nM		34	93	1 nM		no binding	51	6.7

Source: patent publication US20080160035A1 (Regeneron, published 2008)
